US20230025129A1 (KYMAB, published 2023)
Substitutions are numbered along the chain they refer to.

T1: human matriptase-2 ECD protein his tag (human, UniProt Q8IU80 78-811)
T1 sequence: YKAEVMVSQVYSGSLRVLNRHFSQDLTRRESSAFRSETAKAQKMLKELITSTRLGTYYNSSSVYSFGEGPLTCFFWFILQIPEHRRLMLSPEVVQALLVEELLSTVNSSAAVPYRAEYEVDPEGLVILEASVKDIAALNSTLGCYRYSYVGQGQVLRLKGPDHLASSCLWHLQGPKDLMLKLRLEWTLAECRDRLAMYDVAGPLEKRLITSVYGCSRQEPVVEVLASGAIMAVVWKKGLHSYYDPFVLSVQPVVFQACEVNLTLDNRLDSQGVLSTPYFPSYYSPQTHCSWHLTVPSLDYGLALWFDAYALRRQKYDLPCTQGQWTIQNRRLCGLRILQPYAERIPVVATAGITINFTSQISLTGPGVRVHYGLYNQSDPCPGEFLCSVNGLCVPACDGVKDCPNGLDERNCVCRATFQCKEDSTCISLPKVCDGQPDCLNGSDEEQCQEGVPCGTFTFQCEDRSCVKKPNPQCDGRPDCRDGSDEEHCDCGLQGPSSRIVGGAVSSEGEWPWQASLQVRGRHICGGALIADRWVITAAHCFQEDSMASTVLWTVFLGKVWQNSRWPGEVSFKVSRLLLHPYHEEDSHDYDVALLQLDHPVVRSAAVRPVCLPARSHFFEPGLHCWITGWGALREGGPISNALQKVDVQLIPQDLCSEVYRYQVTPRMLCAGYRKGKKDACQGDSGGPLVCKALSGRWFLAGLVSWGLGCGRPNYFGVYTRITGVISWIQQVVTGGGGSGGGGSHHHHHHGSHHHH

T2: mouse matriptase-2 ECD protein his tag (mouse, UniProt Q9DBI0 80-811)
T2 sequence: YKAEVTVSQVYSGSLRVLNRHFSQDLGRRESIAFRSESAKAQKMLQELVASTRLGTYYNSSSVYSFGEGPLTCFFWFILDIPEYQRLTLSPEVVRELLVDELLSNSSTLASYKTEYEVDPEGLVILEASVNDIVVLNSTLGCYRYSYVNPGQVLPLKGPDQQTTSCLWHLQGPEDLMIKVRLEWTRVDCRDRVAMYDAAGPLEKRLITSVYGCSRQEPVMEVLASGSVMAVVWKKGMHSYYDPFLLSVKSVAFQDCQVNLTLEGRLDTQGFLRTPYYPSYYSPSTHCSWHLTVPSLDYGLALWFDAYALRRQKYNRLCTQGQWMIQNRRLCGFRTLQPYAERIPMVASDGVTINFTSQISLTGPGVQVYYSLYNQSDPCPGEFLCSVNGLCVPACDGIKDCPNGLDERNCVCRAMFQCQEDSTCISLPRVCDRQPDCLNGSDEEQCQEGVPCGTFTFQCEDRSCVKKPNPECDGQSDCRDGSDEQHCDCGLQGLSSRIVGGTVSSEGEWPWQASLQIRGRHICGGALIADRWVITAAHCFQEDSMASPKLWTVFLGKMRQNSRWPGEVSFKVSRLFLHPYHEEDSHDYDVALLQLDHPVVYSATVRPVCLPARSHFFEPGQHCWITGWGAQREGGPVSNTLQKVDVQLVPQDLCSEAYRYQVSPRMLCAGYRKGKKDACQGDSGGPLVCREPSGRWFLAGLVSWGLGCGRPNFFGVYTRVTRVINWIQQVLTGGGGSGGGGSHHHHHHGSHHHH

T3: human MTP-2 expressed on HEK293 cells (human, UniProt Q8IU80 1-811)
T3 sequence: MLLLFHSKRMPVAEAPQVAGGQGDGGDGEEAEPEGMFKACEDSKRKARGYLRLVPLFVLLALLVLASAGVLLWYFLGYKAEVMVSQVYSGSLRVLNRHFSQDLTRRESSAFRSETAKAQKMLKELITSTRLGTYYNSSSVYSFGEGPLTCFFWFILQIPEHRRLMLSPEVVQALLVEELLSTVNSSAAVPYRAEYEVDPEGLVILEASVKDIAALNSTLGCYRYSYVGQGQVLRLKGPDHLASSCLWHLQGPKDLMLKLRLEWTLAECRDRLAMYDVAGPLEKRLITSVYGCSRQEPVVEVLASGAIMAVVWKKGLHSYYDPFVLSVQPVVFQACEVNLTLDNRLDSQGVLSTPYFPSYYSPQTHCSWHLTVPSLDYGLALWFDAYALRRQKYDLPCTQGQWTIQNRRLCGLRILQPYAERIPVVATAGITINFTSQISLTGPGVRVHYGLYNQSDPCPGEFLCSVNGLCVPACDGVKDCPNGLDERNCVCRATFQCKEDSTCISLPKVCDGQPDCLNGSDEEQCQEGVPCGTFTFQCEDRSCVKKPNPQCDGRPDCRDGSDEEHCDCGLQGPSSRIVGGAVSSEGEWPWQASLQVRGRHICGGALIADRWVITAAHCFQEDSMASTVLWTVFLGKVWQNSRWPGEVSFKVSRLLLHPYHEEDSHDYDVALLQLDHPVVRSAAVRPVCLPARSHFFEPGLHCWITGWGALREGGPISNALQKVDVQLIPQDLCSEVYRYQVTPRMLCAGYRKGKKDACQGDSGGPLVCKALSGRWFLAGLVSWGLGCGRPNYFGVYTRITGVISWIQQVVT

B1: NORI-001 (antibody, human IgG4 S228P, kappa, V domains shown)
VH: QVQLVQSGAEVKKPGASVKVSCKVSGYTLSEFSIHWVRQAPGKGLEWMGGFDPEKGKTIYAQKFQGRVTMTEDTSTDTAYMDLSSLRSEDTAVYYCVTEGHFYGSGVFDFWGQGTLVTVSS
VL: DIQMTQSPSSLSASVGDRVTITCRPSQGLRFDFGWYQQRPGKAPRRLIYAASILQSGVPSRFSGSGSGTEFTLTISSLQPEDFATYYCLQHNNYPWTFGQGTKVEIKR
B2: NORI-007 (antibody, human IgG4 S228P, kappa, V domains shown)
VH: EVQLVESGGGLVKPGRSLRLSCTGSGFTFGDFGMSWFRQAPGKGLEWVCFIRSKPYGGTTDYAPSVKGRFTISRDDSISIAYLQMNSLTTEDTAVYYCSRNDILTGYYIFDYWGQGTQVTVSS
VL: DIQMTQSPSSLSASLGDSITITCQASQDITNYLIWYQHKPGKAPKLLIFDASNLETGVPSRFSGSGSGTDFTFTISSLQPEDYATYYCQQYYNLPLTFGGGTKVDIKR
B3: NORI-002 (antibody, human IgG4 S228P, kappa, V domains shown)
VH: B2 VH with K67R, T71S, I78K, S79G, A81V, T89R, D102E, Q118L
VL: B2 VL with S18R, I19V, Q27H, H38Q, K45R, N53I, Y83F
B4: NORI-004 (antibody, human IgG4 S228P, kappa, V domains shown)
VH: B2 VH with G68D, I78K, S79D, A81V, T89R, D102E, Q118L
VL: B2 VL with S18R, I19V, Q27H, H38Q, K45R, N53I, Y83F
B5: NORI-018 (antibody, human IgG4 S228P, lambda, V domains shown)
VH: QLQLVQSGAEVKKPGASVKVSCKASGYTFTTFGIVWVRQAPGQGLEWMGWISGYNGNTKYAQNLQGRVTMTTDTSTSTAYMELRSLRSDDTAIYYCARDRAIAPRFDPWGQGTLVTVSS
VL: SYELTQPPSVSVSPGQAASIPCSGDNLGDNFACWYQQKPGQSPVLVIYQDSKRPSGIPERFSGSNSGNTATLTINGTQAMDEADYYCQAWDSSTVVFGGGTKLTVLG
B6: NORI-021 (antibody, human IgG4 S228P, lambda, V domains shown)
VH: QVQLVESGGGLVKPGGSLRLSCAAFGFTFSDYYMGWIRQAPGKGLEWVSHISSSGRTRYYADSVKGRFTISRDNAKNALYLQMDSLRAEDTAVFYCARAQLRYFDWLDYWGQGTLVTVSS
VL: QSVLTQPPSVSAAPGQKVTISCSGSGSNIGNNYVSWYQQVPGTAPKLLIYDNNKRPSGIPDRFSGSKSGTSATLGITGLQTGDEADYYCGTWDSSLSAGVFGGGTKLTVLG
B7: NORI-005 (antibody, human IgG4 S228P, kappa, V domains shown)
VH: EVHLVESGGGLIKPGRSLRLSCTGSGFTFGDFGLSWFRQAPGKGLEWISFIRSKPYGGTTDYAASVKGRFTISRDDSKSVAYLQMNSLKTEDSAVYYCARNEILTGYYIFDYWGQGILVTVSS
VL: DIQMTQSPSSLSASLGDRLTITCQASQDISNYLSWYQLQPGKAPKLLIFDASILETGVPSRFSGSGSGTDFSFTVSSLQPEDIATYYCQQYDNLPLTFGGGTKVDLKR
B8: NORI-017 (antibody, human IgG4 S228P, lambda, V domains shown)
VH: QVHLVESGGAVVQPGRSLRLSCAASGFTFSNFDMHWVRQTPGKGLEWVTIIRYDETNIYYTESVKGRFTTSRDNSKNTLYLQMNSLRVEDTAVYYCARGWTGSYVFDYWGQGALVTVSS
VL: QSVLTQPPSVSEAPRQRVTISCSGGSSNIGNNAVNWYQQVPGKAPKLLIHYDDLLPSGVSDRFSGSKSGTSASLAISGLQSEDEADYYCAAWDDSLNGVVFGGGTKLTVLG
B9: NORI-019 (antibody, human IgG4 S228P, lambda, V domains shown)
VH: QVQLVESGGGVVQPGRSLRLSCAASGFTFSNFDMHWVRQAPGKGLEWVAIISYDGSDKYYEDSVKGRFTISRDNSKNTLYLQMNSLRAEDTAIYYCAKDGYGSSLFDHWGQGTLVTVSS
VL: B8 VL with G25S, Y37F, V40L, K43E, A44V, H50Y, A91V, V100L
B10: NORI-020 (antibody, human IgG4 S228P, lambda, V domains shown)
VH: QLQLQESGPGLVKPAETLSLMCTVSGDSISSSHYFWGWIRQPPGKGLEWIGSMYYSGSTYYNPSLKSRVTISVDTSNNQFSLKLRSVTAADTAVYYCVRHNNWGLDNYFDYWGQGTLVTVSS
VL: SYELTQPPSVSVSPGQTARITCSADALPDQYAYWYQQKPGQAPLLVIYKDSERPSGIPERFSGSSSGTIVTLTIRGVQAEDEADYYCQSADSSGSYAVFGGGTKLTVLG
B11: NORI-015 (antibody, human IgG4 S228P, lambda, V domains shown)
VH: EVQLVESGGGLIQAGRSLRLSCAASGFTFDEHVIYWVRQIPGKGLEWISSISWKSDIIAYADSVKGRFTISRDNAKNALYLQMNSLRAEDTALYYCAREKDGDFYYYYFAMDVWGQGTTVTVSS
VL: QSALTQPPSASGSPGQSVTISCTGTSSNVGYYNYVSWYQQHPGKAPKLMIYEVNKRPSGVPDRFSGSKSANTASLTVSGLQADDEADYYCSSYAGSNKVVFGGGTKLTVLG
B12: NORI-016 (antibody, human IgG4 S228P, lambda, V domains shown)
VH: B11 VH with I34M, S52T
VL: B11 VL

target: T1, human matriptase-2 ECD protein his tag; test: cell-based or functional assay

Inhibition enzymatic activity human MTP2 protein (IC50) [nM]	Binder
10.1	B1
8.79	B2
8.53	B3
5.9	B4
2.12	B5
2.71	B6
5.95	B7
1.51	B8
1.54	B9
1.72	B10
5.51	B11
10.4	B12

target: T2, mouse matriptase-2 ECD protein his tag; test: cell-based or functional assay

Inhibition enzymatic activity mouse MTP2 protein (IC50) [nM]	Binder
12.4	B1
39.3	B2
16.2	B3
22.4	B4
0.589	B5
1.9	B6
12.7	B7
0.489	B8
0.911	B9
1.44	B10
5.7	B11
9.27	B12

target: T3, human MTP-2 expressed on HEK293 cells; test: cell-based or functional assay

Inhibition enzymatic activity human MTP2 on cells (IC50) [nM]	Binder
2.22	B5
8.21	B6
0.198	B8
0.0978	B9
0.146	B10
